Laboratory results as given in US10117916B2, “Peptides and combination of peptides for use in immunotherapy against CLL and other cancers” (immatics biotechnologies GmbH, priority 2015, dated 2018).

Target: HLA-A*02:01 (Homo sapiens, UniProt P04439, D140Y/D185E/D98H/E176V/E277Q/G131W/G231S/I119V/I121R/I166T/I218V/L300P/L318F/N151K/N90K/P208A/P217A/Q86G/Q94H/R138H/R169H/T345S)
Assay: MHC binding assay: UV-ligand exchange with β2m ELISA (peptide exchange yield)
Conditions: MHC class I binding score; binding to HLA-A*02:01 ranged by peptide exchange yield (UV-ligand exchange, β2m ELISA)
Excerpt: Candidate peptides for T cell based therapies according to the present invention were further tested for their MHC binding capacity (affinity). The individual peptide-MHC complexes were produced by UV-ligand exchange, where a UV-sensitive peptide is cleaved upon UV-irradiation, and exchanged with the peptide of interest as analyzed. Only peptide candidates that can effectively bind and stabilize the peptide-receptive MHC molecules prevent dissociation of the MHC complexes. To determine the yield of the exchange reaction, an ELISA was performed based on the detection of the light chain (β2m) of stabilized MHC complexes. The assay was performed as generally described in Rodenko et al. (Rodenko et al., 2006).
96 well MAXISorp plates (NUNC) were coated over night with 2 ug/ml streptavidin in PBS at room temperature, washed 4× and blocked for 1 h at 37° C. in 2% BSA containing blocking buffer. Refolded HLA-A*02:01/MLA-001 monomers served as standards, covering the range of 15-500 ng/ml. Peptide-MHC monomers of the UV-exchange reaction were diluted 100 fold in blocking buffer. Samples were incubated for 1 h at 37° C., washed four times, incubated with 2 ug/ml HRP conjugated anti-β2m for 1 h at 37° C., washed again and detected with TMB solution that is stopped with […]. Absorption was measured at 450 nm. Candidate peptides that show a high exchange yield (preferably higher than 50%, most preferred higher than 75%) are generally preferred for a generation and production of antibodies or fragments thereof, and/or T cell receptors or fragments thereof, as they show sufficient avidity to the MHC molecules and prevent dissociation of the MHC complexes.

Peptide Exchange	Substance
″++++″ (≥75% = ++++)	336 (YMAVTTQEV; listed as Homo sapiens) [compound 336]
″+++″ (≥50 = +++)	174 (VLAELPIIVV; listed as Homo sapiens) [compound 174]
″+++″ (≥50 = +++)	127 (LLPTAPTTV; listed as Homo sapiens) [compound 127]
″+++″ (≥50 = +++)	381 (YLLEENKIKL; listed as Homo sapiens) [compound 381]
″+++″ (≥50 = +++)	14 (ALLRLLPGL; listed as Homo sapiens) [compound 14]
″+++″ (≥50 = +++)	149 (SLDNGGYYI; listed as Homo sapiens) [compound 149]
″+++″ (≥50 = +++)	243 (ILPTLEKELFL; listed as Homo sapiens) [compound 243]
″+++″ (≥50 = +++)	339 (GLWGTVVNI; listed as Homo sapiens) [compound 339]
″+++″ (≥50 = +++)	378 (YILGKFFAL; listed as Homo sapiens) [compound 378]
″+++″ (≥50 = +++)	311 (LLVDVEPKV; listed as Homo sapiens) [compound 311]
″+++″ (≥50 = +++)	150 (SLFDQPLSII; listed as Homo sapiens) [compound 150]
″+++″ (≥50 = +++)	156 (SLNIGDVQL; listed as Homo sapiens) [compound 156]
″+++″ (≥50 = +++)	117 (LLILENILL; listed as Homo sapiens) [compound 117]
″+++″ (≥50 = +++)	10 (FVYGESVEL; listed as Homo sapiens) [compound 10]
″++++″ (≥75% = ++++)	37 (FIMEGGAMVL; listed as Homo sapiens) [compound 37]
″++″ (≥20% = ++)	28 (AVLHLLLSV; listed as Homo sapiens) [compound 28]
″++++″ (≥75% = ++++)	195 (YLGGFALSV; listed as Homo sapiens) [compound 195]
″+++″ (≥50 = +++)	172 (TLYDMLASI; listed as Homo sapiens) [compound 172]
″+++″ (≥50 = +++)	62 (GIIDGSPRL; listed as Homo sapiens) [compound 62]
″+++″ (≥50 = +++)	224 (AMEALVVEV; listed as Homo sapiens) [compound 224]
″++″ (≥20% = ++)	165 (TLDDDLDTV; listed as Homo sapiens) [compound 165]
″+++″ (≥50 = +++)	268 (TLLQVFHLL; listed as Homo sapiens) [compound 268]
″+++″ (≥50 = +++)	71 (GLKHDIARV; listed as Homo sapiens) [compound 71]
″+++″ (≥50 = +++)	365 (LISPLLLPV; listed as Homo sapiens) [compound 365]

Peptide Exchange	Substance
″+++″ (≥50 = +++)	118 (RLLILENILL; listed as Homo sapiens) [compound 118]
″+++″ (≥50 = +++)	44 (FLLSINDFL; listed as Homo sapiens) [compound 44]
″+++″ (≥50 = +++)	305 (LLFPQIEGIKI; listed as Homo sapiens) [compound 305]
″+++″ (≥50 = +++)	137 (NLIKTVIKL; listed as Homo sapiens) [compound 137]
″+++″ (≥50 = +++)	110 (LLFDHLEPMEL; listed as Homo sapiens) [compound 110]
″+++″ (≥50 = +++)	113 (KVPAEEVLVAV; listed as Homo sapiens) [compound 113]
″+++″ (≥50 = +++)	231 (FLYIRQLAI; listed as Homo sapiens) [compound 231]
″++″ (≥20% = ++)	162 (SMKDDLENV; listed as Homo sapiens) [compound 162]
″+++″ (≥50 = +++)	267 (TLLDWQDSL; listed as Homo sapiens) [compound 267]
″++++″ (≥75% = ++++)	245 (KIMDYSLLLGV; listed as Homo sapiens) [compound 245]
″+++″ (≥50 = +++)	230 (FLQDSKVIFV; listed as Homo sapiens) [compound 230]
″+++″ (≥50 = +++)	283 (ILQPMDIHV; listed as Homo sapiens) [compound 283]
″+++″ (≥50 = +++)	21 (ALWAGLLTL; listed as Homo sapiens) [compound 21]
″++++″ (≥75% = ++++)	186 (VMDPTKILI; listed as Homo sapiens) [compound 186]
″+++″ (≥50 = +++)	330 (VLMWEIYSL; listed as Homo sapiens) [compound 330]
″++++″ (≥75% = ++++)	294 (ALLDQLHTLL; listed as Homo sapiens) [compound 294]
″+++″ (≥50 = +++)	13 (VVDGMPPGV; listed as Homo sapiens) [compound 13]
″+++″ (≥50 = +++)	377 (VVDGTCVAV; listed as Homo sapiens) [compound 377]
″+++″ (≥50 = +++)	160 (SLSFLVPSL; listed as Homo sapiens) [compound 160]
″++″ (≥20% = ++)	80 (VLIEDELEEL; listed as Homo sapiens) [compound 80]
″+++″ (≥50 = +++)	293 (ALDIMIPMV; listed as Homo sapiens) [compound 293]
″+++″ (≥50 = +++)	317 (NLLAHIWAL; listed as Homo sapiens) [compound 317]
″+++″ (≥50 = +++)	9 (ALCDTLITV; listed as Homo sapiens) [compound 9]
″+++″ (≥50 = +++)	385 (YTIPLAIKL; listed as Homo sapiens) [compound 385]

Peptide Exchange	Substance
″++++″ (≥75% = ++++)	237 (GLQENLDVVV; listed as Homo sapiens) [compound 237]
″+++″ (≥50 = +++)	164 (SVHKGFAFV; listed as Homo sapiens) [compound 164]
″+++″ (≥50 = +++)	216 (WLAGDVPAA; listed as Homo sapiens) [compound 216]
″+″ (≥10% = +)	196 (YLLLQTYVL; listed as Homo sapiens) [compound 196]
″+++″ (≥50 = +++)	354 (FIMDDPAGNSYL; listed as Homo sapiens) [compound 354]
″+++″ (≥50 = +++)	244 (ILQALAVHL; listed as Homo sapiens) [compound 244]
″+++″ (≥50 = +++)	93 (ILFNTQINI; listed as Homo sapiens) [compound 93]
″+++″ (≥50 = +++)	152 (SLIRILQTI; listed as Homo sapiens) [compound 152]
″+++″ (≥50 = +++)	324 (SLYSALQQA; listed as Homo sapiens) [compound 324]
″+++″ (≥50 = +++)	279 (YMAPEVVEA; listed as Homo sapiens) [compound 279]
″+++″ (≥50 = +++)	359 (FMQDPMEVFV; listed as Homo sapiens) [compound 359]
″+++″ (≥50 = +++)	60 (FVLDHEDGLNL; listed as Homo sapiens) [compound 60]
″++++″ (≥75% = ++++)	51 (FLVEAPHDWDL; listed as Homo sapiens) [compound 51]
″+++″ (≥50 = +++)	175 (FTVPRVVAV; listed as Homo sapiens) [compound 175]
″+++″ (≥50 = +++)	31 (ELMHGVAGV; listed as Homo sapiens) [compound 31]
″+++″ (≥50 = +++)	331 (VLWELAHLPTL; listed as Homo sapiens) [compound 331]
″++″ (≥20% = ++)	95 (ILGYMAHEHKV; listed as Homo sapiens) [compound 95]
″++″ (≥20% = ++)	188 (VMGDIPAAV; listed as Homo sapiens) [compound 188]
″+++″ (≥50 = +++)	146 (SIIEGPIIKL; listed as Homo sapiens) [compound 146]
″+++″ (≥50 = +++)	342 (SLITPLQAV; listed as Homo sapiens) [compound 342]
″+++″ (≥50 = +++)	72 (GLLDAGKMYV; listed as Homo sapiens) [compound 72]
″+++″ (≥50 = +++)	203 (ALLSSQLAL; listed as Homo sapiens) [compound 203]
″++++″ (≥75% = ++++)	327 (VLIKWFPEV; listed as Homo sapiens) [compound 327]
